Patent publication US20040009898A1 (UNIVERSITY OF IOWA RESEARCH FOUNDATION, published 2004)
No end group written: not given here.

Target: urokinase plasminogen activator receptor (uPAR) on differentiated human airway epithelia (human, UniProt Q03405 23-305, GPI-linked)
Experiment: cell-based or functional assay

Sequence of urokinase plasminogen activator receptor (uPAR) on differentiated human airway epithelia (Q03405 23-305): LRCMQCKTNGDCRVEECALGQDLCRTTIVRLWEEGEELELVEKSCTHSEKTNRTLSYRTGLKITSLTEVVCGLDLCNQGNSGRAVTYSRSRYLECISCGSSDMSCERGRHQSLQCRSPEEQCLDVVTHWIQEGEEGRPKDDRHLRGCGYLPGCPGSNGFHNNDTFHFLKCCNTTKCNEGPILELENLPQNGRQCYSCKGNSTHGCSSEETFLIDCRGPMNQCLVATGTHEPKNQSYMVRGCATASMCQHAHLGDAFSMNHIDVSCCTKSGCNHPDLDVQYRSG

B1: u7-peptide coupled through PEG to the capsid of adenovirus Ad2/βgal-4 (other)
peptide: CLNGGTC
modifications: not fully specified; also: coupled through bifunctional PEG to adenovirus capsid, terminal Cys with free sulfhydryl used for coupling
gene transfer (β-galactosidase) to human airway epithelia: 10 fold
